According to article PMC5498468, “Exposure to the Epstein–Barr Viral Antigen Latent Membrane Protein 1 Induces Myelin-Reactive Antibodies In Vivo” (Frontiers in Immunology, 2017):
No end group written: not given here.

Molecular target: T1, Bovine myelin basic protein (MBP) (bovine, UniProt P02687 1-169)
T1 construct: Myelin basic protein, bovine
Test: ELISA + other: WB (methods) or immunoprecipitation (results); synthetic peptides with C-terminal Lys-biotin tested for binding of MBP and LMP1; one grade a pair for the two assays
Conditions: both partners purified

T1 sequence (P02687 whole entry): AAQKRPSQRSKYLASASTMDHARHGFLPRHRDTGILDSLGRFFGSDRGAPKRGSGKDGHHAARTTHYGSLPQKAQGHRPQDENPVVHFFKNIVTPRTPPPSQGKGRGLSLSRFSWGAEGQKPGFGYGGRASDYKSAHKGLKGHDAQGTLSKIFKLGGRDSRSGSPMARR

B1: Synthesized biotinylated peptide P3, TYGGTFTDYLYNWVK (Bio) (peptide)
peptide: TYGGTFTDYLYNWVK
modifications: also: C-terminal Lys-biotin
notes: source: synthetic peptide (Shanghai Ruifu Chemical Co., Ltd.)
- binding result: binds
